Source: the DeepSol protein solubility set

Assay: soluble on expression in E. coli; label from the status in PepcDB or PDB records

Soluble on expression in E. coli, not soluble:
MGSDKIHHHHHHMSPRLGDSAEMFVPQEQSGLNEAAPAAPRRPYRLSRRPEERVHVLGGTMDLVRPEEVFHFVTGKLEARQNAIVANHNLHSLYLIGKDHQIGQFYKAADLIEVDSVPLIFWARLVGRASRRFHRCTYLDWRDAFWALASEKNWKVFFVGGAPGVGEKAVERIRQDWPNARIETHHGYFDATQGSAENTAVVAKIRDYAPDIVLVGMGMPRQEIWTLENHQAYGPAATFTVGGAFDYEAGVQKAAPRWMGPLGMEWLFRLMSDPQRLFFRYCIEPWSLIGPACGDVVRALSRRSTTGESRAAENARWEQIRARNEAAR
DPIGHLNKLPVAVVNSDTGVTKEGKTINAGEQITHSLVDQQQAKFIEVSADQARKGIADGTYYFAIEFPTDFSQAATSVKDPQPHQAKLNAVYNNANGFLATMLGNQVVGRVLAAVNENLGSQVANQLLVGFNTIGQGLGAAADGAGQLADGSHKAHDGADKLADGSTQLNNGLQQANDGAHKLYDGAGQLDQGIHTASNGADALADGLTKLNAATDTLGNGAGQVSAGVDKLVGVAQQASDAQAQLTVPLVNLSAQLRATGIPQAIDLANSADGIINSINAAGIGPQSDMMTQLSKLRNGASEIHRQLSDPTAQYRAGINSATEGAQKLSTGLHQLSDGSEKLVIGTKTLADGTTKLSAGSQQLTVGASQLSSGLVRLDEGASELSLKLGESKDKIPQFPDDTIADSARNVSTPVAENVARDSLS
MGSDKIHHHHHHVTIPTQAKFTLRGRNPDVLSCIANLSNDEVFTPPEFAARMLDTLAQAWAEDHGGANLWADPTVRFLDPCTKSGVFLREITRRLVEGLAEQMPDLQKRVDHILTRQVFGIGITRLTALLARRSVYCSKYANGPHSIAKSFTTEAGNIWFERVEHTWKNGRCVYCGASQGTLDRGEELESHAYAFIHTDDIKTRITEIFGDDMQFDVIIGNPPYQLASDGGTRDIPIYQHFVEQAKKLDPKYLVMVIPSRWMASGLGLSEFRQTMLADRRIRELVDFPVATEVFPGVEVKGGVCYFLWNAAREGDCNVTTVRGEELRSCTLQF
MAHHHHHHMKTLKEALTNVLSSLNIAEKKEILNVLYHILQKIIENPSRAKFRSLKKDNKTFVNKLLQFKESDELLRSLGFEEETEIWFFPVKNDHKLSSNLTEIRAFIKEHVNTIYNNQDSIFETGTASSSAHLPTDEKNVTENTSNLGDTCNNSEGLTLGGLSKRRLEKERLELLSQKENTIKLLQEHADKWIIQITGAENTLYSNETFQMQFKFTEKYPIESPEVIFLGQPPIHPHIYSNGHICLSILYDHWSPVLSVNSICLSIISMLSSCKKKRKPLDDILYCSTGPRISPKNMKWMFHDDKV
MSLKIVLTGSIGRINQTLVPKLTHAGHEVTVISHQATRSSLIKVFRATPAIGRLDDEAFLTKTFMGADVVYLMVTGIAASDDLYTAAKRQADIYAAAIKAAGVKRVVNLSSVGADLGPEVGALYMYHIIEQTLTTALPDVDLTFIRPTAMYYNLLSSVPTVKKSHRIYTNANLAVKNVWVAPVDVTTVLIKALTEPTPGQTVTYVASDEKTYLEVASALSQALKMPDLRVSQVPDEVMQDHLVTAGTPVAFAREYVKTVAYQRDHDFYADYRAHQPRLGDVKLADFAEGHHHHHH
MGSDKIHHHHHHMSDTDKQAFLTSVSSKEQVKKVIEPRKVTKCPHCQSTHFVKNGKDCGNQRFLCRDCKKSFVEQTGTILYNTQKDIEVWEKYIHCMIEKYPLRKCAEICKINLATAFTWRHKILDALQNMMNEVELDGIVQADETYSTISYKGHHKNFNLPRPAHKRGTRATKRGISKEQVCVPCGINLDGKSVARISNLGKPSLKNIN
ALKQKIIGNGEKRVVTYAPTWREDDFISVGHYHFRWHFSLKKMMGLLPEDVMLLIRPHYLVTDRIDIKGFEDRVVIDSTTDMNEIYLITDLMVTDYSSVMFDFAILKRPMLFFAYDLEYYRDDLRGFYFDYYTELPGSIVTDETHLLAEIDQLLQNNFAELDPERFNKFAKRFVSWERGTAAQQVIEKINYRRDEK
AFVKMVGHHVAFLEADVLQAERDHGAFPQALRRWLGSAGLPSFRNVSGVQWHNPSSLQPPPPGFK
MAFSVAYDLIPNKLIKDIDEMNQWLHDKINRAVYLVGFATQQSDYEYKLYELFKALDELEERLKKQLFLFGNQLTESDLYLLATLERFDNIYFCLFKCSLKRIADYPALFRYHNQLRGMESLASTYQPVLTKEHYFMSTMHVLGLEHHHHHH
ISFEINGIKITTYPPPFRIFLEIDNKQEFEKLDRIRKNVDVVVLGFPVGHYDLDEVKNKVKQLVDYGYVVGIDAESPRELKEGVRAGASFVFNLNENNFEELEEIRKEAAFVVAPFNTENRGEITIDLVKKAKQKGFDKLIADPVLSPPLRGLVSSIIGYKYVRETLQDIPILMGILNVTELIDADSIGMNALLTAIAGELGISNLLIMEKGKTRWSSWEVSQATKMISVALKENRLPKDIGIDLLVLKDKRRFRESFNADVIVNRRIEPEMDNTGFAKIFVSEDGFGVEWIGKNKITIKGKDGLSIGRELIRRVKDISKEHAVYIGYELAKAEIAYQLDKNYIQDKPLF
PQYIGGISNTFKYKNWEFSCFVTMQAGNKIRMNPSFDPAFADLNVFSKEYYNRWLNPGDERKTNIPVIPSQDLIRNIGKENIEKAYNTYNYSQNRVADGSFVRMKNISLGYRLPQRFLSHLKIKQMNVKVNVTNPFLIYSDRKLNGQDPEFYRSGGVSLPTPKQYTMTLNVEF
MGSDKIHHHHHHMGNILWVASYPKSGNTWVRAFLENYIQNQAQPIDINTMHTISTAESAAHRYQHYLPKDKTATTELTLEEVSVLRPQVQADIAHQANGTTFVKTHNYLGEYNGHPLHNSSVTSGAIYVVRNPLDVAISMANYFGYSIDEAIAYMAEEMTGTPNEAPHVPQIITSWSMHVSSWTADDASKLILRYEDMLDDPKKVFRKVESFLGLKKDPVRLKNAIKHSSFAQLKAQETKLGFVEKHENANAFFRNGGKHQWKTKLTPEQVQKIVATHYEQMKRFKYLPAGM
EDATPETVEYRQLSAADLLADTHLLREVFGLLVLAHYRTEPSDLARLLDAPNLTVRALTHEGHVVAVALLAQEGGLSASTRATMYEGGRVRGNMLPDVLSTQLRDEAAGVPVGQRVLRIATHAAVRSRGLGSKLLSEIRAEFADHVDWVGVSYGATPELVRFWADNGYNTVHLATSRNATSGEYSVVMLDP
MGSDKIHHHHHHMQVVLRIDEKDTRTLQQQVFHQIRALILEGRLRSGDPVPASRELSQQLGVSRNTVLIAYEHLLSEGYLESRANVGTFVSSALPEMSMSTLTSPANDQPSEPSGQSPAPACMPLLEHSVISPNRKKDTVDFWVGRSDGSAFPAREWRRILDTKLRHAKGQLSEYHDPRGLREFRQALADHIGPTRGVLAKPEDVVCVGGSQDGLALIARAFSRTFRTFIHEDPCYLGARAVFSNFSYDTVAVPVDRDGLRVDLLPETGRSLLYVTPSHQYPTGVTLSLERRLQLLQWAERTDSIVIEDDYDGDFRYEGTPLTALRGLDRAGRVIYLGTFSKSFGPAIRIGYLVSTAELSDAFAMWKGILSNGQPWLEQAAMADFITGGSFRRHLRRIRSTYMARRDLLARELTTRIPGTSIHGMRGGMHISARLPKGICAETLQKAAAEHRIAIYRARDCGAWLSPSNTDFDDLLVLGYAAVSDRNIRKAVDVLAHAAEQQSG
MIDMTSKKRAVAPRDLYRRWPWANTAGMEPDMVRLQIFVQNLERAVIGDGRMRPVTSPSEFCDNIGISHATLGRILRGEVIPRFDTIDKLERGVGRALFPPFEDVRVRGNKG

Soluble on expression in E. coli, soluble:
MDYRVLLYYKYVTIDDPETFAAEHLKFCKEHHLKGRILVSTEGINGTLSGTKEDTDKYIEHMHADNRFADLTFKIDEAESHAFKKMHVRPRREIVALDLEEDINPREITGKYYSPKEFKAALEDENTVILDARNDYEYDLGHFRGAIRPDITRFRDLPEWVRNNKEQLDGKNIVTYCTGGIRCEKFSGWLVKEGFENVGQLHGGIATYGKDPETKGQYWDGKMYVFDERISVDVNQIDKTVIGKEHFDGTPCERYINCANPECNKQILVSEENEEKYLGACSYDCAKHERNRYVARHHISNEEWQRRLNNFKDVPEHTHALEHHHHHH
GSDSAITLWQFLLQLLQKPQNKHMICWTSNDGQFKLLQAEEVARLWGIRKNKPNMNYDKLSRALRYYYVKNIIKKVNGQKFVYKFVSYPEILNMDPMTVGRIEGDCESLNFSEVSSSSKDVENGGKDKPPQPGAKTSSRNDYIHSGLYSSFTLNSLN
MNVFNPAQFRAQFPALQDAGVYLDSAATALKPEAVVEATQQFYSLSAGNVHRSQFAEAQRLTARYEAAREKVAQLLNAPDDKTIVWTRGTTESINMVAQCYARPRLQPGDEIIVSVAEHHANLVPWLMVAQQTGAKVVKLPLNAQRLPDVDLLPELITPRSRILALGQMSNVTGGCPDLARAITFAHSAGMVVMVDGAQGAVHFPADVQQLDIDFYAFSGHKLYGPTGIGVLYGKSELLEAMSPWLGGGKMVHEVSFDGFTTQSAPWKLEAGTPNVAGVIGLSAALEWLADYDINQAESWSRSLATLAEDALAKRPGFRSFRCQDSSLLAFDFAGVHHSDMVTLLAEYGIALRAGQHCAQPLLAELGVTGTLRASFAPYNTKSDVDALVNAVDRALELLVD
MSLAQGANAPLNIPANPQMFGTNDPNVRRATAIVNGEIITGTDVEQRLALIVSANGGKIDGEEKERLRMQVLRNLIDETLQIQEAKAADVPADDGQVDASYERVATQNFGQSADALEKYLARIGSSAASLKRQIRGEIAWQNLLRRNVQPFVNVSEGEVQEAMQRLQASKGTEEYRIGEIFLAATEENKPQVFANAEKIVEQLKQGGSFVAYARQYSEASTAAVGGDLGWIRLAQLPTELATTAASMGPGQLAGPVEIRGGFSILYLIDKREGHHHHHH
SLTTVSVNESLLTPLNLEIDPNAQCVKQEEKEQIKSLNSRFAAFIDKVRFLEQQNKLLETKLQFYQNRECCQSNMEPLFEGYIETLRREAECVEADSGRLASELNHVQEVLEGYKKKYEEEVSLRATAENEFVALKKDVDCAYLRKSDLEANVEALIQEIDFLRRLYEEEIRILQSHISDTSVVVKLDNSRDLNMDCIIAEIKAQYDDIVTRSRAEAESWYRSKCEEMKATVIRHGETLRRTKEEINELNRMIQRLTAEVENAKCQNSKLEAAVAQSEQQGEAALSDARCKLAELEGALQKAKQDMACLIREYQEVMNSKLGLDIEIATYRRLLEGEEQRLCEGIGAVNVCVSSSRGGVVCGDLCVSGSRPVTGSVCSAPCNGNVAVSTGLCAPCGQLNTTCGGGSCGVGSCGISSLGVGSCGSSCRKC
MSLTRRDFAGRSALTGAGVVLAGSVGALATAPNALASTDTDSVGAEHDGHDHHHGHGHGGVGYGPLLPDPDGILALPAGFRYEIITYSGRTKLESGEYTPSNHDGTAAFDGPRGTTLLVNNHELGGHRDDWPHPVPLTEGLVYDPAAAGGCTVVEVRRGGHVAEWVGIAGTATNCAGGSTPWGTWLTCEETEDRAGEEGMTKDHGYVFEVDPEDRRANREPKPVKALGRYAHEAVVIDPKRGHAYLTEDASGPNGLLYRWTPPEHFRHGRGRLRTLADDAGVLQAFKCFDSGGKFVDDLSRATRTGTVYGVDWVDVPDRDAQTTSVRKQFAAGEVTRARKLEGMWWADGGAYVVSSFARDESPGRPHDGQVWFYDPKRRTLTLKVLLGVNADPSADGAFDGPDNITVSPYGGLVIAEDGDGVQHLFGATDSGRTYPIARNELNLGTEDDPEYSEFTGVTFSPDGRTLYANIQTPGIMLAITGPWKRQKRR
